For 3 substances, stoichiometry N results are on record in article PMC13451967.

In assay [1] the target is His-SpNDK H121A mutant (catalytically inactive) (Streptococcus pneumoniae). The assay is described as follows: mass photometry; Refeyn OneMP; 50 mM HEPES pH 7.4, 150 mM NaCl with ATP or GTP and 5 mM MgCl2, 5 min at 22°C before the analysis.
Assay [2] addresses His-SpNDK R28A mutant (Streptococcus pneumoniae). Nature of the assay: SEC; Superdex 200 Increase 10/300 GL, 50 mM HEPES pH 7.4, 100 mM NaCl; concentrated sample; molecular weights from a standard curve. (In general: Size exclusion chromatography separates by hydrodynamic size, large species first.)
The target in assay [3] is Streptococcus pneumoniae nucleoside diphosphate kinase with an N-terminal hexa-histidine tag (His-SpNDK), wild type (Streptococcus pneumoniae). The assay is described as above.
Assay [4] shares this target. Nature of the assay: mass photometry; Refeyn OneMP; His-SpNDK diluted to 200 nM, 5 µL added to 15 µL of buffer; 50 mM HEPES pH 7.4, 100 mM NaCl; no nucleotide (ADP or GDP had no significant effect on the wild type).

A value given as a limit tells only on which side of the number the result lay.

A word on the stoichiometry N: it is the number of molecules, sites or subunits per partner or assembly.

As to “His-SpNDK H121A mutant (catalytically inactive) (enzyme)”, the stoichiometry N in assay [1] is less than 6.
Turning to His-SpNDK R28A mutant (enzyme), the stoichiometry N in assay [2] came to 2.
“Streptococcus pneumoniae nucleoside diphosphate kinase with an N-terminal hexa-histidine tag (His-SpNDK), wild type (enzyme)”: the stoichiometry N in assay [3] and in assay [4] was 18 in each case.
